First the molecules themselves.
B1: GA-binding protein alpha chain, residues 172 to 250; numbered along this chain, Q06546 (parent)
chain: GYRKEQERLGIPYDPIQWSTDQVLHWVVWVMKEFSMTDIDLTTLNISGRELCSLNQEDFFQRVPRGEILWSHLELLRKY

± gives the uncertainty stated by the source.

The variants in the series derive from B1. The series can be described thus: abundance fitness (aPCA) (normalised: wild type 0, dead -1); higher = more abundant; growth selection in yeast, the domain comes from the species named. To be noted: Homo sapiens.
As to GYRKEQERLGIPYDPIQWSTDQVLHWVVWVMKEFSMTDIDLTTLNISGRCLCSLNQEDFFQRVPRGEILWSHLELLRKY, the abundance fitness is -0.088 ± 0.075.
Then GYRKEQERLGIPYDPIQWSTDQVLHWVVWVMKEFSMTDIDLTTLNISGRGLCSLNQEDFFQRVPRGEILWSHLELLRKY, with -0.594 ± 0.038; and GYRKEQERLGIPYDPIQWSTDQVLHWVVWVMKEFSMTDIDLTTLNISGRLLCSLNQEDFFQRVPRGEILWSHLELLRKY, with -0.201 ± 0.031; and GYRKEQERLGIPYDPIQWSTDQVLHWVVWVMKEFSMTDIDLTTLNISGRNLCSLNQEDFFQRVPRGEILWSHLELLRKY, with -0.252 ± 0.091.
Then GYRKEQERLGIPYDPIQWSTDQVLHWVVWVMKEFSMTDIDLTTLNISGRHLCSLNQEDFFQRVPRGEILWSHLELLRKY, with -0.2 ± 0.11; and GYRKEQERLGIPYDPIQWSTDQVLHWVVWVMKEFSMTDIDLTTLNISGRMLCSLNQEDFFQRVPRGEILWSHLELLRKY, with -0.24 ± 0.071; and GYRKEQERLGIPYDPIQWSTDQVLHWVVWVMKEFSMTDIDLTTLNISGRWLCSLNQEDFFQRVPRGEILWSHLELLRKY, with -0.672 ± 0.049.
Then GYRKEQERLGIPYDPIQWSTDQVLHWVVWVMKEFSMTDIDLTTLNISGRDLCSLNQEDFFQRVPRGEILWSHLELLRKY, with -0.041 ± 0.06; and GYRKEQERLGIPYDPIQWSTDQVLHWVVWVMKEFSMTDIDLTTLNISGRRLCSLNQEDFFQRVPRGEILWSHLELLRKY, with -0.249 ± 0.034.
In the case of GYRKEQERLGIPYDPIQWSTDQVLHWVVWVMKEFSMTDIDLTTLNISGRQLCSLNQEDFFQRVPRGEILWSHLELLRKY, the abundance fitness was determined as 0.013 ± 0.056.
As for GYRKEQERLGIPYDPIQWSTDQVLHWVVWVMKEFSMTDIDLTTLNISGRALCSLNQEDFFQRVPRGEILWSHLELLRKY, the abundance fitness was -0.074 ± 0.041.
As for GYRKEQERLGIPYDPIQWSTDQVLHWVVWVMKEFSMTDIDLTTLNISGRPLCSLNQEDFFQRVPRGEILWSHLELLRKY, the figure is -0.94 ± 0.091; as for GYRKEQERLGIPYDPIQWSTDQVLHWVVWVMKEFSMTDIDLTTLNISGRKLCSLNQEDFFQRVPRGEILWSHLELLRKY, -0.041 ± 0.088; as for GYRKEQERLGIPYDPIQWSTDQVLHWVVWVMKEFSMTDIDLTTLNISGRYLCSLNQEDFFQRVPRGEILWSHLELLRKY, -0.117 ± 0.076.
In the case of GYRKEQERLGIPYDPIQWSTDQVLHWVVWVMKEFSMTDIDLTTLNISGRILCSLNQEDFFQRVPRGEILWSHLELLRKY, the abundance fitness is -0.156 ± 0.073.
In the case of GYRKEQERLGIPYDPIQWSTDQVLHWVVWVMKEFSMTDIDLTTLNISGRSLCSLNQEDFFQRVPRGEILWSHLELLRKY, the abundance fitness is -0.291 ± 0.039.
As for GYRKEQERLGIPYDPIQWSTDQVLHWVVWVMKEFSMTDIDLTTLNISGGELCSLNQEDFFQRVPRGEILWSHLELLRKY, the figure is -0.125 ± 0.031; as for GYRKEQERLGIPYDPIQWSTDQVLHWVVWVMKEFSMTDIDLTTLNISGTELCSLNQEDFFQRVPRGEILWSHLELLRKY, -0.085 ± 0.053; as for GYRKEQERLGIPYDPIQWSTDQVLHWVVWVMKEFSMTDIDLTTLNISGAELCSLNQEDFFQRVPRGEILWSHLELLRKY, 0.006 ± 0.038.
As for GYRKEQERLGIPYDPIQWSTDQVLHWVVWVMKEFSMTDIDLTTLNISGSELCSLNQEDFFQRVPRGEILWSHLELLRKY, the figure is -0.006 ± 0.034; as for GYRKEQERLGIPYDPIQWSTDQVLHWVVWVMKEFSMTDIDLTTLNISGYELCSLNQEDFFQRVPRGEILWSHLELLRKY, -0.077 ± 0.066; as for GYRKEQERLGIPYDPIQWSTDQVLHWVVWVMKEFSMTDIDLTTLNISGIELCSLNQEDFFQRVPRGEILWSHLELLRKY, -0.203 ± 0.12.
As for GYRKEQERLGIPYDPIQWSTDQVLHWVVWVMKEFSMTDIDLTTLNISGMELCSLNQEDFFQRVPRGEILWSHLELLRKY, the figure is 0.042 ± 0.061.
As to GYRKEQERLGIPYDPIQWSTDQVLHWVVWVMKEFSMTDIDLTTLNISGFELCSLNQEDFFQRVPRGEILWSHLELLRKY, the abundance fitness was -0.113 ± 0.073.
As for GYRKEQERLGIPYDPIQWSTDQVLHWVVWVMKEFSMTDIDLTTLNISGQELCSLNQEDFFQRVPRGEILWSHLELLRKY, the figure is -0.021 ± 0.061.
Then GYRKEQERLGIPYDPIQWSTDQVLHWVVWVMKEFSMTDIDLTTLNISGWELCSLNQEDFFQRVPRGEILWSHLELLRKY, with -0.143 ± 0.043; and GYRKEQERLGIPYDPIQWSTDQVLHWVVWVMKEFSMTDIDLTTLNISGLELCSLNQEDFFQRVPRGEILWSHLELLRKY, with -0.072 ± 0.034; and GYRKEQERLGIPYDPIQWSTDQVLHWVVWVMKEFSMTDIDLTTLNISGCELCSLNQEDFFQRVPRGEILWSHLELLRKY, with -0.109 ± 0.066.
Then GYRKEQERLGIPYDPIQWSTDQVLHWVVWVMKEFSMTDIDLTTLNISGHELCSLNQEDFFQRVPRGEILWSHLELLRKY, with -0.152 ± 0.1; and GYRKEQERLGIPYDPIQWSTDQVLHWVVWVMKEFSMTDIDLTTLNISGDELCSLNQEDFFQRVPRGEILWSHLELLRKY, with -0.1 ± 0.087; and GYRKEQERLGIPYDPIQWSTDQVLHWVVWVMKEFSMTDIDLTTLNISGVELCSLNQEDFFQRVPRGEILWSHLELLRKY, with -0.082 ± 0.041.
Regarding GYRKEQERLGIPYDPIQWSTDQVLHWVVWVMKEFSMTDIDLTTLNISGNELCSLNQEDFFQRVPRGEILWSHLELLRKY, the abundance fitness was -0.257 ± 0.17.
For the variant GYRKEQERLGIPYDPIQWSTDQVLHWVVWVMKEFSMTDIDLTTLNISGEELCSLNQEDFFQRVPRGEILWSHLELLRKY, the abundance fitness was 0.041 ± 0.046.
As for GYRKEQERLGIPYDPIQWSTDQVLHWVVWVMKEFSMTDIDLTTLNISGPELCSLNQEDFFQRVPRGEILWSHLELLRKY, the figure is 0.001 ± 0.052; as for GYRKEQERLGIPYDPIQWSTDQVLHWVVWVMKEFSMTDIDLTTLNISGKELCSLNQEDFFQRVPRGEILWSHLELLRKY, -0.086 ± 0.08.
Then GYRKEQERLGIPYDPIQWSTDQVLHWVVWVMKEFSMTDIDLTTLNISKRELCSLNQEDFFQRVPRGEILWSHLELLRKY, with -0.951 ± 0.39; and GYRKEQERLGIPYDPIQWSTDQVLHWVVWVMKEFSMTDIDLTTLNISCRELCSLNQEDFFQRVPRGEILWSHLELLRKY, with -0.919 ± 0.14; and GYRKEQERLGIPYDPIQWSTDQVLHWVVWVMKEFSMTDIDLTTLNISHRELCSLNQEDFFQRVPRGEILWSHLELLRKY, with -0.305 ± 0.19.
As for GYRKEQERLGIPYDPIQWSTDQVLHWVVWVMKEFSMTDIDLTTLNISDRELCSLNQEDFFQRVPRGEILWSHLELLRKY, the abundance fitness was -0.804 ± 0.14.
Take GYRKEQERLGIPYDPIQWSTDQVLHWVVWVMKEFSMTDIDLTTLNISLRELCSLNQEDFFQRVPRGEILWSHLELLRKY: the abundance fitness is -0.982 ± 0.12.
Then GYRKEQERLGIPYDPIQWSTDQVLHWVVWVMKEFSMTDIDLTTLNISRRELCSLNQEDFFQRVPRGEILWSHLELLRKY, with -0.944 ± 0.098; and GYRKEQERLGIPYDPIQWSTDQVLHWVVWVMKEFSMTDIDLTTLNISVRELCSLNQEDFFQRVPRGEILWSHLELLRKY, with -0.884 ± 0.084.
Then GYRKEQERLGIPYDPIQWSTDQVLHWVVWVMKEFSMTDIDLTTLNISQRELCSLNQEDFFQRVPRGEILWSHLELLRKY, with -1.02 ± 0.27; and GYRKEQERLGIPYDPIQWSTDQVLHWVVWVMKEFSMTDIDLTTLNISTRELCSLNQEDFFQRVPRGEILWSHLELLRKY, with -0.813 ± 0.23; and GYRKEQERLGIPYDPIQWSTDQVLHWVVWVMKEFSMTDIDLTTLNISNRELCSLNQEDFFQRVPRGEILWSHLELLRKY, with -0.578 ± 0.39.
Turning to GYRKEQERLGIPYDPIQWSTDQVLHWVVWVMKEFSMTDIDLTTLNISMRELCSLNQEDFFQRVPRGEILWSHLELLRKY, the abundance fitness is -0.99 ± 0.3.
As for GYRKEQERLGIPYDPIQWSTDQVLHWVVWVMKEFSMTDIDLTTLNISPRELCSLNQEDFFQRVPRGEILWSHLELLRKY, the figure is -0.633 ± 0.066.
Regarding GYRKEQERLGIPYDPIQWSTDQVLHWVVWVMKEFSMTDIDLTTLNISSRELCSLNQEDFFQRVPRGEILWSHLELLRKY, the abundance fitness was -0.804 ± 0.082.
As for GYRKEQERLGIPYDPIQWSTDQVLHWVVWVMKEFSMTDIDLTTLNISWRELCSLNQEDFFQRVPRGEILWSHLELLRKY, the figure is -0.84 ± 0.13; as for GYRKEQERLGIPYDPIQWSTDQVLHWVVWVMKEFSMTDIDLTTLNISFRELCSLNQEDFFQRVPRGEILWSHLELLRKY, -0.796 ± 0.16.
Then GYRKEQERLGIPYDPIQWSTDQVLHWVVWVMKEFSMTDIDLTTLNISARELCSLNQEDFFQRVPRGEILWSHLELLRKY, with -0.788 ± 0.073.
GYRKEQERLGIPYDPIQWSTDQVLHWVVWVMKEFSMTDIDLTTLNITGRELCSLNQEDFFQRVPRGEILWSHLELLRKY: the abundance fitness came to 0.03 ± 0.042.
Then GYRKEQERLGIPYDPIQWSTDQVLHWVVWVMKEFSMTDIDLTTLNIAGRELCSLNQEDFFQRVPRGEILWSHLELLRKY, with -0.161 ± 0.041; and GYRKEQERLGIPYDPIQWSTDQVLHWVVWVMKEFSMTDIDLTTLNINGRELCSLNQEDFFQRVPRGEILWSHLELLRKY, with -0.041 ± 0.1; and GYRKEQERLGIPYDPIQWSTDQVLHWVVWVMKEFSMTDIDLTTLNIQGRELCSLNQEDFFQRVPRGEILWSHLELLRKY, with -0.276 ± 0.065.
Then GYRKEQERLGIPYDPIQWSTDQVLHWVVWVMKEFSMTDIDLTTLNIRGRELCSLNQEDFFQRVPRGEILWSHLELLRKY, with -0.277 ± 0.034.
As for GYRKEQERLGIPYDPIQWSTDQVLHWVVWVMKEFSMTDIDLTTLNIGGRELCSLNQEDFFQRVPRGEILWSHLELLRKY, the figure is -0.14 ± 0.032.
Regarding GYRKEQERLGIPYDPIQWSTDQVLHWVVWVMKEFSMTDIDLTTLNIKGRELCSLNQEDFFQRVPRGEILWSHLELLRKY, the abundance fitness was -0.137 ± 0.062.
Then GYRKEQERLGIPYDPIQWSTDQVLHWVVWVMKEFSMTDIDLTTLNIPGRELCSLNQEDFFQRVPRGEILWSHLELLRKY, with -0.04 ± 0.038.
Then GYRKEQERLGIPYDPIQWSTDQVLHWVVWVMKEFSMTDIDLTTLNIFGRELCSLNQEDFFQRVPRGEILWSHLELLRKY, with -0.866 ± 0.16; and GYRKEQERLGIPYDPIQWSTDQVLHWVVWVMKEFSMTDIDLTTLNIEGRELCSLNQEDFFQRVPRGEILWSHLELLRKY, with -0.061 ± 0.058.
Then GYRKEQERLGIPYDPIQWSTDQVLHWVVWVMKEFSMTDIDLTTLNIWGRELCSLNQEDFFQRVPRGEILWSHLELLRKY, with -0.812 ± 0.093; and GYRKEQERLGIPYDPIQWSTDQVLHWVVWVMKEFSMTDIDLTTLNIMGRELCSLNQEDFFQRVPRGEILWSHLELLRKY, with -0.446 ± 0.086.
As to GYRKEQERLGIPYDPIQWSTDQVLHWVVWVMKEFSMTDIDLTTLNIDGRELCSLNQEDFFQRVPRGEILWSHLELLRKY, the abundance fitness is -0.07 ± 0.099.
Then GYRKEQERLGIPYDPIQWSTDQVLHWVVWVMKEFSMTDIDLTTLNIVGRELCSLNQEDFFQRVPRGEILWSHLELLRKY, with -0.418 ± 0.047.
As for GYRKEQERLGIPYDPIQWSTDQVLHWVVWVMKEFSMTDIDLTTLNIHGRELCSLNQEDFFQRVPRGEILWSHLELLRKY, the figure is -0.266 ± 0.078; as for GYRKEQERLGIPYDPIQWSTDQVLHWVVWVMKEFSMTDIDLTTLNICGRELCSLNQEDFFQRVPRGEILWSHLELLRKY, -0.039 ± 0.073; as for GYRKEQERLGIPYDPIQWSTDQVLHWVVWVMKEFSMTDIDLTTLNIIGRELCSLNQEDFFQRVPRGEILWSHLELLRKY, -0.279 ± 0.25.
Then GYRKEQERLGIPYDPIQWSTDQVLHWVVWVMKEFSMTDIDLTTLNIYGRELCSLNQEDFFQRVPRGEILWSHLELLRKY, with -0.637 ± 0.15.

The values are drawn from the Human Domainome abundance scans (Beltran et al. 2025).
